Legend:
[1] = molecular target: T1, catalytic region of CaCdc25 (REM-CAT tandem) (Candida albicans, UniProt P43069); test: SAXS; small angle X-ray scattering in solution, P12 beamline (EMBL, DESY), profiles extrapolated to infinite dilution; oligomeric state and stoichiometry deduced from the estimated masses (Table S1); conditions: both partners purified
T1 construct: PDB 7NZZ holds this construct; also called REM-CAT tandem of CaCdc25; catalytic region of the CaRas1 guanine nucleotide exchange factor CaCdc25
T1 sequence: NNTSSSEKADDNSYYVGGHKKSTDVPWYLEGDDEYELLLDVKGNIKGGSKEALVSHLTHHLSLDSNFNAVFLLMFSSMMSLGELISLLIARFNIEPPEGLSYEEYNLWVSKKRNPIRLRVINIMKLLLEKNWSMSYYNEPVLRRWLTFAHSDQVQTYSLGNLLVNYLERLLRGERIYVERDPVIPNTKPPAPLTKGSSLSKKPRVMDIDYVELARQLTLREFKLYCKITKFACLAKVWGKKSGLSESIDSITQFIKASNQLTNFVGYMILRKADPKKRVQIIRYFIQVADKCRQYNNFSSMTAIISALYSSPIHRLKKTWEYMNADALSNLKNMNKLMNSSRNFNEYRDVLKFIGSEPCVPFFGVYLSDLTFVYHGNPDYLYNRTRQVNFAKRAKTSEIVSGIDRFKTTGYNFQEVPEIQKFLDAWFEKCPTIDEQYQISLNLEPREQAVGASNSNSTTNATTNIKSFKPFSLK

[2] = molecular target: T1, catalytic region of CaCdc25 (REM-CAT …); test: ITC; recombinant CaCdc25 (REM-CAT tandem) titrated with CaRas1-FL or G-domain, MicroCal VP-ITC, single binding site model; conditions: both partners purified

B1: full-length Candida albicans Ras-like protein 1 (CaRas1-FL, 1–290) (natural protein)
chain: MLREYKLVVVGGGGVGKSALTIQLIQSHFVDEYDPTIEDSYRKQCTIDDQQVLLDVLDTAGQEEYSAMREQYMRTGEGFLLVYSINSLNSFQELNSFYDQILRVKDSDNVPVLVVGNKCDLEMERQVSYEDGLALANSFNCPFLETSAKQRINVEEAFYGLVRNINQYNAKIAEAEKQQQQQQQQQNANQQGQDQYGQQKDNQQSQFNNQINNNNNTSAVNGGVSSDGIIDQNGNGGVSSGQANLPNQSQSQSQRQQQQQQQEPQQQSENQFSGQKQSSSKSKNGCCVIV
notes: Ras-like protein 1 (CaRas1), Candida albicans, full-length protein, residues 1-290 (G-domain 1-166, hypervariable region 167-290); Monomeric in solution by SAXS; also called full-length CaRas1
- stoichiometry N [1]: 1
- Kd [2]: 9 µM

B2: isolated G-domain of CaRas1 (1–166) (domain or fragment)
chain: MLREYKLVVVGGGGVGKSALTIQLIQSHFVDEYDPTIEDSYRKQCTIDDQQVLLDVLDTAGQEEYSAMREQYMRTGEGFLLVYSINSLNSFQELNSFYDQILRVKDSDNVPVLVVGNKCDLEMERQVSYEDGLALANSFNCPFLETSAKQRINVEEAFYGLVRNIN
notes: Ras-like protein 1 (CaRas1), Candida albicans, GTPase domain (G-domain), residues 1-166; Monomeric in solution by SAXS; also called CaRas1 G-domain
- stoichiometry N [1]: 1
- Kd [2]: 9 µM

From article PMC10470544, “Pathogen-specific structural features of Candida albicans Ras1 activation complex: uncovering new antifungal drug targets” (mBio, 2023)
